Assay results from patent US20130012436A1 (Bristol-Myers Squibb, published 2013).
Changes are numbered by the printed parent chain.

T1: human IL-23 (human, UniProt Q9NPF7 20-189; P29460 23-328)
T1 sequence (looked up) 1: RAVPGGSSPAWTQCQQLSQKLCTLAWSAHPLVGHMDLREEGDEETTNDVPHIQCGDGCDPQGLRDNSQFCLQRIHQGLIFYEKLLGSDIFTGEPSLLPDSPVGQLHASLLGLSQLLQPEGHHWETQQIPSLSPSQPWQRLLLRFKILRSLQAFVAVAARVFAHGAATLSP
T1 sequence (looked up) 2: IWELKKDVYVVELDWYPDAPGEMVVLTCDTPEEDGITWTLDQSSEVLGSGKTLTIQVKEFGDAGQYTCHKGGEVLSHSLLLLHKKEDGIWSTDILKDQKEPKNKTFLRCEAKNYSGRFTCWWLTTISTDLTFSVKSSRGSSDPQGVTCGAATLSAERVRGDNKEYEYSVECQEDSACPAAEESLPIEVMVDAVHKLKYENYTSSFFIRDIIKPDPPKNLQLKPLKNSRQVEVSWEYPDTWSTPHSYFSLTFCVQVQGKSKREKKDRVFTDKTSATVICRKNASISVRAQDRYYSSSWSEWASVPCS

B1: 1490B03 (designed binder)
chain: MGVSDVPRDLEVVAATPTSLLISWGHYPLHVRYYRITYGETGGNSPVQEFTVPSRKYTATISGLKPGVDYTITVYAVTYYKEANYREIPISINYRTEIDKPSQHHHHHH
notes: captured by anti-His mAb
B2: 1572G06 (designed binder)
chain: B1 chain with S54R, R55Y, K81A, E82Q, A83E, R86K
notes: captured by anti-His mAb
B3: 1571G06 (designed binder)
chain: B1 chain with V31L, S54R, R55T, N84D, R86S, E87Q
notes: captured by anti-His mAb
B4: 1572H05 (designed binder)
chain: B1 chain with V31I, S54R, R55S, K81E, E82Q, A83V, N84E
notes: captured by anti-His mAb
B5: 1550 E06 (designed binder)
chain: B1 chain with L29M, S54P, R55P, K56R, Y57H, K81A, E82Q, A83E, R86K
notes: captured by anti-His mAb
B6: 1572C09 (designed binder)
chain: B1 chain with L29M, V31I, S54T, R55P, Y57H, K81N, N84D, R86S, E87Q
notes: captured by anti-His mAb
B7: 1571G04 (designed binder)
chain: B1 chain with S54P, K56S, Y57H, K81A, E82Q, A83E, R86K
notes: captured by anti-His mAb
B8: 1490H05 (designed binder)
chain: B1 chain with S54M, K56Q, Y57H, K81A, E82Q, A83E, R86K
notes: captured by anti-His mAb
B9: 1571H03 (designed binder)
chain: B1 chain with S54N, K56V, K81A, E82Q, A83E, N84E, R86H, E87I
notes: captured by anti-His mAb
B10: 1572F05 (designed binder)
chain: B1 chain with V31I, S54R, R55Q, K81N, N84D, R86S, E87Q
notes: captured by anti-His mAb
B11: SABA4.1 (designed binder)
chain: MGVSDVPRDLEMVAATPTSLLISWEDDSYYSRYYRITYGETGGNSPVQEFTVPSDLYTATISGLKPGVDYTITVYAVTYDVTDLIMHEPISINYRTEIDKPSQHHHHHH
B12: SABA2.1 (designed binder)
chain: MGVSDVPRDLEVVAATPTSLLISWPKYDKTGHYYRITYGETGGNSPVQEFTVPTRQTTATISGLKPGVDYTITVYAVSKDDYYPHEHRPISINYRTEIDKPSQHHHHHH
B13: SABA1.1 (designed binder)
chain: MGVSDVPRDLEVVAATPTSLLISWHSYYEQNSYYRITYGETGGNSPVQEFTVPYSQTTATISGLKPGVDYTITVYAVYGSKYYYPISINYRTEIDKPSQHHHHHH
B14: SABA3.1 (designed binder)
chain: MGVSDVPRDLEVVAATPTSLLISWSNDGPGLSYYRITYGETGGNSPVQEFTVPSSQTTATISGLKPGVDYTITVYAVSYYTKKAYSAGPISINYRTEIDKPSQHHHHHH
B15: ATI000934 (designed binder)
chain: MGVSDVPRDLEVVAATPTSLLISWGHYPLHLRYYRITYGETGGNSPVQEFTVPRTKYTATISGLKPGVDYTITVYAVTYYKEADYSQIPISINYRTEIDKPCQ
modifications: pegylated at the C-terminal EIDKPCQ (Cys)
notes: also called ATI 934; not shown: his-tag
B16: ATI001014 (designed binder)
chain: MGVSDVPRDLEVVAATPTSLLISWGHYPLHVRYYRITYGETGGNSPVQEFTVPPRSHTATISGLKPGVDYTITVYAVTYYAQENYKEIPISINYRTGSGC
modifications: pegylated at the C-terminal GSGC linker (Cys)
notes: not shown: his-tag
B17: ATI001047 (designed binder)
chain: B16 chain
modifications: pegylated at the C-terminal GSGC linker (Cys)

Target: T1, human IL-23
Experiment: cell-based or functional assay

| Kit 225 pSTAT3 IC50 (nM) | Binder |
| --- | --- |
| 0.3 nM | B1 |
| 0.05 nM | B2 |
| 0.3 nM | B3 |
| 0.01 nM | B4 |
| 0.4 nM | B5 |
| 0.5 nM | B6 |
| 0.1 nM | B7 |
| 0.4 nM | B8 |
| 0.4 nM | B9 |
| 3 nM | B10 |

Target: T1, human IL-23
Experiment: cell-based or functional assay
Remark: another data set of the same source

| IL-17 EC50 | IL-22 EC50 | PBMNC pSTAT3 IC50 (nM) | Binder |
| --- | --- | --- | --- |
| 1.4 nM | 1.7 nM | 0.09 nM | B1 |
| 1.6 nM | 1.9 nM | 0.21 nM | B2 |
| 3.5 nM | 5.1 nM | 0.93 nM | B3 |
| 1.5 nM | 2.1 nM | 1.15 nM | B5 |
| 7.9 nM | 5.3 nM | – | B6 |
| 1.4 nM | 1.3 nM | 0.23 nM | B7 |
| 1.8 nM | 2.9 nM | – | B8 |
| 2.9 nM | 2.3 nM | – | B9 |

Target: T2, murine serum albumin (mouse, UniProt P07724 25-608)
T2 construct: also called MuSA; mouse serum albumin
Experiment: SPR, albumin captured on CM5 chip
Method: (§1) The kinetics of selected SABA clones purified from HTPP and/or midscaled material were determined by capturing the respective serum albumin (HSA/RhSA/MuSA) on the surface of a Biasensor CM5 chip and flowing a concentration series of SABAs over both the reference flow cell and the captured albumins. In addition, binding to albumin was carried out under various pH conditions ranging from pH 5.5 to pH 7.4. […] SABA1.1 fits biochemical criteria for pH resistance and affinity/kinetics down to pH 5.5.

| binding result | Binder |
| --- | --- |
| no binding | B11 |
| no binding | B12 |
| no binding | B13 |
| no binding | B14 |

Target: T1, human IL-23
Experiment: SPR, Adnectin captured by anti-His mAb, IL-23 injected
Method: All surface plasmon experiments were conducted in HBS-EP (10 mM Hepes 150 mM NaCl 3 mM EDTA 0.05% Surfactant P20) at 25° C. IL-23 was injected over anti-His mAb captured Adnectins for 2 minutes followed by a 10 minute dissociation phase. Evaluation of the binding specificity was completed using Biacore T100 evaluation software. Additional detailed methods are described in Example 4.

| kon | Kd | koff | Binder |
| --- | --- | --- | --- |
| 153000 M⁻¹ s⁻¹ | – | – | B1 |
| 105000 M⁻¹ s⁻¹ | – | – | B2 |
| 131000 M⁻¹ s⁻¹ | 1.81 nM | 0.000238 s⁻¹ | B3 |
| 375000 M⁻¹ s⁻¹ | 0.61 nM | 0.00023 s⁻¹ | B4 |
| 55400 M⁻¹ s⁻¹ | 2.1 nM | 0.000116 s⁻¹ | B5 |
| 60700 M⁻¹ s⁻¹ | – | – | B6 |
| 170000 M⁻¹ s⁻¹ | 2.1 nM | 0.000361 s⁻¹ | B7 |
| 156000 M⁻¹ s⁻¹ | 2.1 nM | 0.000322 s⁻¹ | B8 |
| 118000 M⁻¹ s⁻¹ | 3.4 nM | 0.000395 s⁻¹ | B9 |
| 132000 M⁻¹ s⁻¹ | 2.2 nM | 0.000285 s⁻¹ | B10 |

Target: T3, human serum albumin (human, UniProt P02768 25-609)
T3 construct: also called HSA
Experiment: SPR (Biacore), albumin captured on CM5 chip, SABA flowed
Method: as §1, with “5.5. […]” for “5.5.”

T3 sequence (P02768 25-609 limits assumed): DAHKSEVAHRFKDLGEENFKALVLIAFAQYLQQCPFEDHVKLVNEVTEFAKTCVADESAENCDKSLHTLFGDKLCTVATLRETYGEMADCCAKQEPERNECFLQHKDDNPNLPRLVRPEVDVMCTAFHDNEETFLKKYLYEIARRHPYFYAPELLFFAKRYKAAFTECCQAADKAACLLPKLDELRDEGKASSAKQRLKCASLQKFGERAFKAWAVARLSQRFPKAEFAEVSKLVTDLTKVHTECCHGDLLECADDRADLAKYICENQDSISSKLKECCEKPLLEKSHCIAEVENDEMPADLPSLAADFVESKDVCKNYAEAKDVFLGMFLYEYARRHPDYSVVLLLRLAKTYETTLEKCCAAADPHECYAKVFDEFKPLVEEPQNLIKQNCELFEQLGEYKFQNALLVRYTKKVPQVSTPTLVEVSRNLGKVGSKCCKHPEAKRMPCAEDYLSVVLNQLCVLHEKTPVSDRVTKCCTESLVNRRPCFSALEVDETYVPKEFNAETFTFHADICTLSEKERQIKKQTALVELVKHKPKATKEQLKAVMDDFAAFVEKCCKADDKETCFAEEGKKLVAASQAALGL

| Kd | koff | Binder |
| --- | --- | --- |
| 412 nM | 0.000782 s⁻¹ | B11 |
| 33.8 nM | 0.000171 s⁻¹ | B12 |
| 47.2 nM | 0.000457 s⁻¹ | B13 |
| 863 nM | 0.0682 s⁻¹ | B14 |

Target: T4, rhesus serum albumin (rhesus, UniProt Q28522 17-600)
T4 construct: also called RhSA
Experiment: as above
Method: as §1, with “5.5. […]” for “5.5.”

T4 sequence (Q28522 17-600 limits assumed): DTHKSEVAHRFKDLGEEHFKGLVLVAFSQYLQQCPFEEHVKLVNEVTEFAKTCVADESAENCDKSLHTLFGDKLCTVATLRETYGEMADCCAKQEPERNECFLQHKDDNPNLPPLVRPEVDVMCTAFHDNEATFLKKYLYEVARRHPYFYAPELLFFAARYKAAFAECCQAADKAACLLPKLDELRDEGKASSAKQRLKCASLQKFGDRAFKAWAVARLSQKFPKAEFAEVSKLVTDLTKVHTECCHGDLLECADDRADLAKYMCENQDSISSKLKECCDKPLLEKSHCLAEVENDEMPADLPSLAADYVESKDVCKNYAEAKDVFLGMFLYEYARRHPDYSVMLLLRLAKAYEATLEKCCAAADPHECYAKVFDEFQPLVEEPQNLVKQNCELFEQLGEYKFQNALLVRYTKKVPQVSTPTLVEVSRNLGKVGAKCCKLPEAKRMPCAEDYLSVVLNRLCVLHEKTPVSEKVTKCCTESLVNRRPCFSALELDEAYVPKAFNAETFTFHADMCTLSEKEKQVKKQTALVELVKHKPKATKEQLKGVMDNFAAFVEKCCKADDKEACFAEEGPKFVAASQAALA

| Kd | koff | Binder |
| --- | --- | --- |
| > 1000 nM | 0.00383 s⁻¹ | B11 |
| 63.6 nM | 0.000442 s⁻¹ | B12 |
| 778 nM | 0.00545 s⁻¹ | B13 |
| 431 nM | 0.0337 s⁻¹ | B14 |

Target: T1, human IL-23
Experiment: SPR (ProteOn XPR), human IL-23 directly immobilized, 25 C
Method: The binding characteristics were characterized by Surface Plasmon Resonance (SPR). Human IL-23 was immobilized at two to four levels in one dimension of a ProteOn XPR (Bio-Rad) chip surfaces and exposed to 6 different concentrations of anti-IL-23 adnectins in the other dimension of the same SPR chip surface. This allowed kinetic determination in the absence of regeneration. Duplicate chips were used for kinetic determinations at 25° C. and 37° C. Evaluation of the kinetic parameters was performed using the Langmuir interaction model and constant parameter fitting with the ProteOn Manager software.
Even at 37° C. the off rates were close to the limit of detection for SPR technologies so it is possible that the reported dissociation constant measurements are under-estimates.

| Kd | koff | kon | Binder |
| --- | --- | --- | --- |
| 0.2 nM | 1.2e-05 s⁻¹ | 57000 M⁻¹ s⁻¹ | B7 |
| 1.9 nM | 1.8e-05 s⁻¹ | 9400 M⁻¹ s⁻¹ | B15 |
| 1.8 nM | 1.7e-05 s⁻¹ | 9400 M⁻¹ s⁻¹ | B16 |
| 1.6 nM | 2e-05 s⁻¹ | 13000 M⁻¹ s⁻¹ | B17 |

Target: T1, human IL-23
Experiment: KinExA, solution phase, adnectin titrated, unbound IL-23 captured on non-PEGylated ATI001045 matrix
Method: The solution affinity of ATI001045 and ATI001047 for human IL-23 was also measured using an alternate format in the KinExA. Duplicate titrations of adnectins were performed for each of three (ATI001045) or single (ATI001047) concentrations of human IL-23 (quadruplicate for the lowest concentration). The relative unbound human IL-23 concentration was measured by capture on a non-PEGylated ATI001045 solid matrix followed by detection with a fluorescently labeled antibody that recognizes the p40 subunit of hIL-23.

| Kd | Binder |
| --- | --- |
| 0.0363 nM | B17 |
